Assay results: the DeepSol protein solubility set

Assay: soluble on expression in E. coli; label from the status in PepcDB or PDB records

Soluble on expression in E. coli, not soluble:
MGSDKIHHHHHHMMKHLTLWHTNDVHSHLEHWPRIFNFLKEKRTAADKENQSALFFDIGDFLDRVHPLTEGTNGLANTDLLNQLPYDVVTFGNNEGTTLAHEDLDKLYEHAVFPVVCCNFYTNKECTEQPDWVKSIVYKEIEQVKIAIIGATAPFRDYYEEMGWGIEEPISSIKKQVAGLDEDTDVVILLSHLGLPSDERIALEIPEVDVILGGHTHHLLETGKIEGNALLAAAGRWGEYIGKVDIELDENNQILTKTAMTFKTEDLPAAPNEANEIQGFFDKGRAELSEKVVAIPGKLAHNWFDDSEIAHILNEAVCEWTGAETFVMNAGIFMTDFEAGIVTDFDIHQMLPHPLNAIALTMSGEELEILIDGIYRKKAELQDIPLRGFGFRGEYFGTVLMERAGFDAENQVALFDNKPIDKTREYRIATHDTFVFAPFFPIVKQIKRKEVYTPELLRDILKWKLKKMYGQEEDK
MGSDKIHHHHHHMMKKKWYIVLTMSGYEEKVKENIEKKVEATGIKNLVGRIVIPEEVVLDATSPSERLILSPKAKLHVNNGKDVNKGDLIAEEPPIYARRSGVIVDVKNVRKIVVETIDRKYTKTYYIPESAGIEPGLRVGTKVKQGLPLSKNEEYICELDGKIVEIERMKKVVVQTPDGEQDVYYIPLDVFDRDRIKKGKEVKQGEMLAEARKFFAKVSGRVEVVDYSTRKEIRIYKTKRRKLFPGYVFVEMIMNDEAYNFVRSVPYVMGFVSSGGQPVPVKDREMRPILRLAGLEEYEEKKKPVKVELGFKVGDMVKIISGPFEDFAGVIKEIDPERQELKVNVTIFGRETPVVLHVSEVEKIE
MGSDKIHHHHHHMMNERIKQRRKELGLTQPSIAKTIGLTKATISLWESGSTSPKGENLHALAKALRCAPEFLLFGNDSIKPEPNAEWAGGFETWGSNSPLGDDEVEIPFYMEVELAAGDGIIDCREYQGPKLRFAKSTLKRQGVTSDHAACVKVNGNSMEPVLPNGSTVGVDTAHTDIVDGKMYAINHDGMLRVKMLYKLPGGGLRLRSYNLDEYPDERLDAEELKQVKVIGKVFWYSVLV
MGSDKIHHHHHHMMTSTPRLLQAIQQTTTAILKTNLVGIYLHGSYVLGSYNEQVSDLDYLIVVRRSLTLAEKRQLMTATITQLWPLAPHKGLEFHVLLLSATQHFVHPCPFDFHFSKYHYEDYQRTPLAYLKAMHGTDPDLAAHLTILQAAGQVLLGPAITTVFGPIPAVAYWDSIKSDIANAETAIVQLPMYTVLNLCRVRAYQQDQLIISKQAGGEWGLQQLPTQWHPLIRQALAAYAGQQDEQVIRWSRPNLVAFARIMLAELGLKSE
MGSDKIHHHHHHMNAPLNHPLPLLDLDVLRTFVAIAETGSFTTAANAVFRTPSAVSMQIKKLEDILGRSVFARDARSVSLTTDGEMLLGYARRLLSINREVVSKFIIPEIVGVVRLGSPDDYGERVLPHVLKRFAQSHPSIAVDVTIDQSSNLRRRMDDRALDITLLTNSYKTSALGAEVLLTEPIVWAGAKGGCAHLREPLPVSLWEEGCAWRAGALEALGREGRNYRVAYMSAHTAGQRAAIMADLAVAPLPRSFLGNDMVELCPKDGMPDIGTYNLAMVVAPDASAPVKAVADHIRATFEVFRETGKF
MGSDKIHHHHHHMNAVLQKKGGVGIIILARLDSTRLPGKALRTAAGKEMLGYVVERARMVRGVSEIVLATTDRTVDDRLEEYAAACDLAVFRGSDVDVAGRVAACVRWRGWDAFVRINGDSPFIDPQTISSAVNLLYGLGGVSAAGLSDSHAQRGNMHAECASLPLVACGSVTLAGYAGHDATELPDMVTNVLRRTFPKGQSVEVCRASAFLAGYAAMHLPEHLEHVTKYFYDTRSIRIMNMESGDPSLGEIQLAVDTEEDFALFERMLARMDRPHTAYAAHEIIELYRECLHG
MGSDKIHHHHHHMNDDFLFSDDEPDIAEEEVSEPYNILIVDDDEEIHTITKMALGEFKLDGRPLKFHSVYSGKDAIAFLQDNTNIAMMLLDVVMETDHAGLDVAQWVRETRKNRLIRIVLRTGQPGQAPEEDVIARYDIDDYKEKTELTYRKLVTLMYSCLRAYRDLNAIERNKRGLEKVINASAEVFSARSMQALCQGILEQLVALITLSDDAMYCRIDALTASSDTDDPFEIIGGTGEYEEAVGQPVHGEIDWDIVRPMQQSPQNVDFRIVDGNYYGLYKTSSSRQYLLFIRGVRDLSELDQNLLGLFVNNSSIAIDNLQATENEREAQRELLYSVGEAIEKHSIDEISHHVKRSAEMAGQLAIFSGATQEQAEALKQAASVYDIGKVSVQMELAQRADVLSIHEYEEIMQKVIQGHDYLRQTDSAVAKVAALIAQDIHERWNGSGFPSQKSAKAIDLNARILSITSHFDALRTQRNYRDAKESEDAADYLLQHSGKFFDPELVGLMLDNLDAMEKIRQRFLDKKQDTRH
MGSDKIHHHHHHMNDLSRSPYILEMRNVSKTFPGVKALDGINLKVKRGTIHALMGENGAGKSTLMKILYGIYTPDAGGELILDDKPFKPSAPIDAIRTGLTMVPQEISPAGNLTIADNFYLGREITRSKFFLNQKEMDCKTAEILNELGIPMDVTAKMSDVSVAKAQLVAIATAVSNDAKVIIMDEPTTALTEVEVEQLYKIIETVRQRGISIIFISHKLDEVFRVSDEITVIRDGQYVGTKLTSEVTKDELISMMVGRDMSEMFQRERIVISDEVVLEIKNFSRAGKYHDINFQVRRGEIFGIAGLVGAGRSEIVEGLFGYKLADSGEIYVHGEKADIKTPLDAMKYKIGFVTEDRKLTGLFLNLSITDNMIMPRMSPYLENFLVSVTKAQKSANAQKDKLKIKAPNVEVITNNLSGGNQQKVLLARWLLLEPDILILDEPTKGIDVGAKAELYKLMVELAKQGKSIIMITSDMLELLSMSDRVMVMHEGRVAGIIPQEELTQERVLELASGLGQV
MGSDKIHHHHHHMNDPESIFQRLDRLLARIEDTLPVRPQHADPAEYIALRWRKHGDTGYLQAINHPHTITLNELLNIEEQKQTLDRNTLQFVSGLPANNVLLTGARGTGKSSLIKALLNRYADRGLRMIEVDKLGLTDLPDIIEFIGQRPERFILYCDDLSFEADEPGYKALKVVLDGSISTASDNVLIYATSNRRHLIPEFMHENLATRHVDGEIHPGEATEEKISLSERFGLWLSFYPFDQEQYLEIVRHWLSQHGISRLSGPARQEALRWALARGSRNGRVARQFARDWAGQQKLAKTEPVRVDKE
MGSDKIHHHHHHMNDYKALRTFLLAAEKRNFAQVARELDMTPAAVTRAIAALEAELGVQLFVRTTRQVSLTTDGAIFAAQLQPAVKTIEDARREVMNAHKADEGRLRISAPTWFGKAVLPPILSAFKERYPKMSFEISLSDGLVNIVDDDYDLAIRISSQPSDKFTIWRKIRVVPRILVAAPGSRFVDMQHPNELTPDDCLAYSGDSRRENWVLSDGGSSITISAGRAFSANNGEVLADIAADGAGVAMLPGFHIFEHLRTGRLVHVFKGWAPPDLWLTLYYPPYQALPPRIASFSKFFEEQVPAHMVMLD
MGSDKIHHHHHHMNELNCLPQDAVLWGHDILPAATASLEAHGLRHPLTFTVEPLRDFHAQHVAPYLKRGAGAFTDLPPHAPDTGVRCALDACLRAEADSILALGGGSVLDAAKAVSHLHQQQTGRYLPIAAYPTTLSGSEYSHYFGVTETVGPQPFKRSYAVRETVPKVVVIDPKLLVNTPRELLLSSAIKGIDHAVEGMRRVGVDHPHAILAAAGVERFFAVLEKWPAGTDTAEALRSGQITTDDLLQLQLAAWQCYFFPASVIYGLSHRIGHILGGTYGLPHSVTSCITLAPVLQACAATYGNKLNIFCHGETTADAAPALAGRIAGVVKRLGLPYRLRDLDFDRARLAQVAALLRQNYAAEVADLGDGADAMLHTFLERLW
MGSDKIHHHHHHMNEVLDEYRRLLSEVDHWFSRCIARSGEHIRCAEGCSECCRGLFDITLLDAALLKEGFDRLDAFTREQVLVKCRKRLAGLLRLWPEFAHPYMLNYRPEEEWELLMPDDDETPCPLLGADGRCLVYGFRPMTCRLHGLPLVDLTGEVLHDEWCTLNYVGGDPLADAGLRGEFTKIFREEVRLFRHFSERLLGQEFRELDTFIPTALLIDFTRFDWHRFAAGFSVTP
MGSDKIHHHHHHMNFQQCRYVEAIANTGSFSEAAKKLYVTQPNLSSSIKELENDLGVQLFIRSNTGARLTDDGYDFLKYAKRILGEADLLKKRYQDNYKKSFTISSHHYDFLAIPLLEIAEKFKKDFQHFHLIETTTKKILESVLNFESDLGILYLNDDNRHILERYFKQHDLAFTPLGDFPTRIFLRKDHPLAQQKVIEKVQLKDYKQVRFRQEISGLNFDEDTLDIPENQSVFYSNDRGTIMNILCGSDAYASGLGIVNSFIKDQIVLIPLKDSKMHTLGFVSNKRKQETDITQQFITAVKNSLRTYERGTQL
MGSDKIHHHHHHMNGQKIIGSQCITQCNPDLRITELIIPGTHDSATSTCYERYYRTQDLSIAEQLDCGVRFLDIRLRKEMVAAHREWVSDIRAEEIFEKCGEFLQKNPQEFVLMRIQNANERKDDFPEYGEALLSKVQQYKSLFYAWDHSQIVQDGNPKWPTIAQAAGKIVPIECAPPSMSINKIDGELWAANWHDNSQILLQDLWDGPTVEEKCVAIKTLIEKGREVHSDILLLNHISATNGELQYPDAYAAYLNEYSSRLWKQLAKRSFRGVQIYDFINPSICQELLRLNFD
MGSDKIHHHHHHMNGTATGPRSSHFHWLLCALIVALPGCRDKPLREVIDRPVLFTEIADPQNASYGRFAGSIQPQHEVALGFRIAGRLATRHAEMGDRVRKGDLLATLDPSDQQNRLRARQAELSRARSAWQQLSDEQTRYQQLYTRGVGSRARLDQLNSDLRSQNALLDQASAAVQQAGDHLAYTRLTAEFDGLVTQWQTEVGQVMATGQAVVSLARPESREAVVDLPVGLLASLDDSRQIRVISQLDKQVSVIASVRQLAPQIDAGTRTQRVRLALQHIPDSLRLGSTVTVEISGNAPAFHELPASAVLARDGKDQVWVIDPSTSTLSPRAVQVLARKGGKVQVSGELHEGEKVVTAGVNGMQSGQKIRMQREVSL
MGSDKIHHHHHHMNIAIFGAGSTGCYLAGQLCISELQVSLICRPAIKQKIIANNGITLTDYNGFKQTIMPQALITDINQESSIYGKFDVVFVTLKCHQVSSIANQLMAITHDNSSIIFMQNGLGSFDSIKDSLDHYSLLQGITPFNVLQLPNAVFHKGTEGVFTLQANPHTIAIQSALVNHGFGCDIEADFTPMIYGKLLLNLNNALNAVTDLPIKQQLSHYKNRRILAKAMKEWLAVCEAADIQLHQYTKVKPSWLPTILLLPNVLFTVLAKQMLDIDPKARSSMWEDIQAKRKTEVDYINGAVVSIGKKYGIKTPVNQAIVEQIKQLEQRH

Soluble on expression in E. coli, soluble:
MGSDKIHHHHHHMMWEQFKKEKLRGYLEAKNQRKVDFDIVELLDLINSFDDFVTLSSCSGRIAVVDLEKPGDKASSLFLGKWHEGVEVSEVAEAALRSRKVAWLIQYPPIIHVACRNIGAAKLLMNAANTAGFRRSGVISLSNYVVEIASLERIELPVAEKGLMLVDDAYLSYVVRWANEKLLKGKEKLGRLQEALESLQRENAYCSD
